Measured values published in patent US20100297703A1.

Key:
Experiment in all cases: cell-based or functional assay
[1] = target: 6His-C-CwlO protein (Bacillus subtilis) (UniProt P40767)
[2] = target: 6His-C-YddH protein (Bacillus subtilis) (UniProt P96645)
[3] = target: His-tag-fused C-terminal active domain of CwlE (His-CwlECTD) (Bacillus subtilis) (UniProt O07532)
[4] = target: h-ACwlS protein (Bacillus subtilis) (UniProt O31852)

Chain of 6His-C-CwlO protein (Bacillus subtilis) (P40767 343-473): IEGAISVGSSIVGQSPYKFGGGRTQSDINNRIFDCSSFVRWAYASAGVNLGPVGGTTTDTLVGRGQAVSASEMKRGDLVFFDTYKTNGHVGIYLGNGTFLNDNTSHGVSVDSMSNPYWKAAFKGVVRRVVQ
Chain of His-tag-fused C-terminal active domain of CwlE (His-CwlECTD) (Bacillus subtilis) (O07532 371-488 limits assumed): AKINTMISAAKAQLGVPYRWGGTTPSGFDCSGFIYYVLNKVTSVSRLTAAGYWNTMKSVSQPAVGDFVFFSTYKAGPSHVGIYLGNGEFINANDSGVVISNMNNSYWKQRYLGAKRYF
Chain of 6His-C-YddH protein (Bacillus subtilis) (P96645 206-329): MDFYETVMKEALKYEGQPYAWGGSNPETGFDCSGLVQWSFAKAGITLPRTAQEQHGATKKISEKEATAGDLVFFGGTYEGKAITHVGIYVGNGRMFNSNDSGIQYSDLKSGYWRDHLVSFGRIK

His-YoeB (from UniProt O34841 24-181)
100: cell wall lysing activity (decrease in turbidity, OD540), enzyme:His-YoeB 1:2 by mole (% of activity inhibited) [1] | cell wall lysing activity (decrease in turbidity, OD540), enzyme:His-YoeB 1:2 by mole (% of activity inhibited) [2] | cell wall lysing activity (decrease in turbidity, OD540), His-CwlECTD:His-YoeB 1:2 by mole (% of activity inhibited) [3] | cell wall lysing activity (decrease in turbidity, OD540), enzyme:His-YoeB 1:2 by mole (% of activity inhibited) [4]
